{"source": "paper PMC5966295", "about": "“Crystal structures of murine and human Histamine-Releasing Factor (HRF/TCTP) and a model for HRF dimerisation in mast cell activation” (Molecular Immunology, 2018)", "proteins": {"B1": {"name": "human Histamine-Releasing Factor (natural protein, UniProt P13693 1-172, looked up)", "chain": "MIIYRDLISHDEMFSDIYKIREIADGLCLEVEGKMVSRTEGNIDDSLIGGNASAEGPEGEGTESTVITGVDIVMNHHLQETSFTKEAYKKYIKDYMKSIKGKLEEQRPERVKPFMTGAAEQIKHILANFKNYQFFIGENMNPDGMVALLDYREDGVTPYMIFFKDGLEMEKC", "notes": "Histamine-Releasing Factor (HRF/TCTP), human, wild type; Met1 to Cys172, followed by the C-terminal purification tag Leu173-His180; The tag is ordered in the crystals and contributes about 25% of the hHRF-2 dimer interface; In hHRF-2 the two chains are joined by an intermolecular disulphide bond Cys172-Cys172; also called hHRF; HRF; source: prepared according to a previously described protocol …"}}, "target": "the molecule itself", "assay": "crystal structure; hHRF-2 crystal form, 1.4 Å; crystals grown at 18 °C in 0.1 M MES pH6.0 and 20% (w/v) PEG 2000 MME; two molecules in the asymmetric unit, disulphide-linked dimer"}
{"protein": "B1", "values": [{"measurement": "stoichiometry N", "value": 2}]}
